The values that follow come from patent US20190367626A1.

Sequences and labels used below:
B1: HC1LC3 (antibody, human IgG1, kappa, V domains shown)
VH: QVQLVQSGAEVKKPGATVKISCKVSGYIFTNNDMNWVQQAPGKGLEWMGGIDPGDGRTKYNEKFKGRVTITADESTSTAYMELSSLRSEDTAVYYCGRGGYEFGIDYWGQGTLVTVSS
VL: DIVMTQSPDSLAVSLGERATINCKSSQSLLNSGNQKNSLAWYQQRPGHPPKLLLYGASTRESGVPDRFSGSGSGTDFTLTISSLQAEDVAVYYCQNDHSFPLTFGGGTKVEIKR
B2: HC2LC3 (antibody, human IgG1, kappa, V domains shown)
VH: QVQLVQSGAEVKKPGASVKVSCKASGYIFTNNDMNWVRQAPGQGLEWMGGIDPGDGRTKYNEKFKGRVTMTRDTSTNTVYMELSSLTSEDTAVYFCGRGGYEFGIDYWGQGTTVTVSS
VL: DIVMTQSPDSLAVSLGERATINCKSSQSLLNSGNQKNSLAWYQQRPGHPPKLLLYGASTRESGVPDRFSGSGSGTDFTLTISSLQAEDVAVYYCQNDHSFPLTFGGGTKVEIKR
B3: HC4LC3 (antibody, human IgG1, kappa, V domains shown)
VH: QVQLVESGAEVKKPGASVKVSCKVSGYIFTNNDMNWVRQAPGEGLEWMGGIDPGDGRTKYNEKFKGRVTMTEDTSTDTAYMELSSLRSEDTAVYYCGRGGYEFGIDYWGQGTTVTVSS
VL: DIVMTQSPDSLAVSLGERATINCKSSQSLLNSGNQKNSLAWYQQRPGHPPKLLLYGASTRESGVPDRFSGSGSGTDFTLTISSLQAEDVAVYYCQNDHSFPLTFGGGTKVEIKR
B4: HC3LC3 (antibody, human IgG1, kappa, V domains shown)
VH: QVQLVQSGAEVKKPGSSVKVSCKSSGYIFTNNDMNWVRQAPGQGLDWMGGIDPGDGRTKYNEKFKGRVTISADIFSNTAYMELNSLTSEDTAVYFCGRGGYEFGIDYWGQGTTVTVSS
VL: DIVMTQSPDSLAVSLGERATINCKSSQSLLNSGNQKNSLAWYQQRPGHPPKLLLYGASTRESGVPDRFSGSGSGTDFTLTISSLQAEDVAVYYCQNDHSFPLTFGGGTKVEIKR
B5: HC0LC0 (antibody, human IgG1, kappa, V domains shown)
VH: QVQLQQSGPELVKPGASVKISCKASGYIFTNNDMNWVKQRPGQGLEWIGGIDPGDGRTKYNEKFKGKATLTADKFSNTVYMQLSSLTSENSAVYFCGRGGYEFGIDYWGQGTSVTVSS
VL: DIVMTQSPSSLSVSAGEKVTMSCKSSQSLLNSGNQKNSLAWYQQKPGRPPTLLISGASTRESGVPDRFTGSGSGTDFTLTISSVQAEDLAVYYCQNDHSFPLTFGAGTKLELKR

The target of the test is TRAILshort (UniProt P50591). Description: SPR.
Sequence of TRAILshort (P50591 other isoform, or with tags, fused parts or gaps): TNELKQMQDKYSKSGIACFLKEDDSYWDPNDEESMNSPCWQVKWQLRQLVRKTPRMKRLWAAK
In turn, B1 registered a Kd of 10 pM. That is a picomolar value. B2 registered a Kd of 3.8 pM. As to B3, the Kd is 31 pM. The result for B4 reads 4.5 pM; that for B5, 3 pM.
